B1: GLTSCR2 (parent)
chain: YNPSFEDHQTLLSAAHEVELQRQK
B2: VPS39 (parent)
chain: QQVKCIITEEKVCMVCKKKIGNSA

Variants of: B1
Experiment: protein stability index of a GFP-peptide fusion (GPS, HEK-293T) (PSI 1-6); higher = more stable
Details: c terminus: a fixed tail appended
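Also: lentivirally expressed fusions sorted by FACS into six bins by GFP to DsRed ratio, PSI derived from sequencing read proportions per bin multiplied by bin number.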

Row | Variant | protein stability index
1 | YNPSFADHQTLLSAAHEVELQRQK | 3.1
2 | YNPSFMDHQTLLSAAHEVELQRQK | 2.38
3 | YNPSFPDHQTLLSAAHEVELQRQK | 3.76
4 | YNPSFLDHQTLLSAAHEVELQRQK | 3.04
5 | YNPSFHDHQTLLSAAHEVELQRQK | 3.18
6 | YNPSFYDHQTLLSAAHEVELQRQK | 2.67
7 | YNPSFRDHQTLLSAAHEVELQRQK | 2.57
8 | YNPSFKDHQTLLSAAHEVELQRQK | 2.72
9 | YNPSFWDHQTLLSAAHEVELQRQK | 2.75
10 | YNPSFTDHQTLLSAAHEVELQRQK | 3.09
11 | YNPSFFDHQTLLSAAHEVELQRQK | 2.51
12 | YNPSFQDHQTLLSAAHEVELQRQK | 2.58
13 | YNPSFSDHQTLLSAAHEVELQRQK | 3.15
14 | YNPSFVDHQTLLSAAHEVELQRQK | 3
15 | YNDSFEDHQTLLSAAHEVELQRQK | 4.32
16 | YNCSFEDHQTLLSAAHEVELQRQK | 3.37
17 | YNGSFEDHQTLLSAAHEVELQRQK | 4.35

Row | Variant | protein stability index
18 | YNESFEDHQTLLSAAHEVELQRQK | 5.06
19 | YNASFEDHQTLLSAAHEVELQRQK | 4.25
20 | YNYSFEDHQTLLSAAHEVELQRQK | 3.97
21 | YNNSFEDHQTLLSAAHEVELQRQK | 4.45
22 | YNMSFEDHQTLLSAAHEVELQRQK | 4.08
23 | YNHSFEDHQTLLSAAHEVELQRQK | 4.67
24 | YNWSFEDHQTLLSAAHEVELQRQK | 1.9
25 | YNVSFEDHQTLLSAAHEVELQRQK | 3.73
26 | YNQSFEDHQTLLSAAHEVELQRQK | 5.13
27 | YNISFEDHQTLLSAAHEVELQRQK | 3.82
28 | YNLSFEDHQTLLSAAHEVELQRQK | 4.3
29 | YNRSFEDHQTLLSAAHEVELQRQK | 3.85
30 | YNTSFEDHQTLLSAAHEVELQRQK | 5.01
31 | YNKSFEDHQTLLSAAHEVELQRQK | 4.3
32 | YNFSFEDHQTLLSAAHEVELQRQK | 4.06
33 | YNSSFEDHQTLLSAAHEVELQRQK | 4.28

Variants of: B2
Experiment: as above
Details: c terminus: a fixed tail appended

Row | Variant | protein stability index
34 | QQVKCIITEEKVCMVCKKKIWNSA | 1.76
35 | QQVKCIITEEKVCMVCKKKITNSA | 2.51
36 | QQVKCIITEEKVCMVCKKKIQNSA | 2.76
37 | QQVKCIITEEKVCMVCKKKIYNSA | 2.3
38 | QQVKCIITEEKVCMVCKKKIRNSA | 2.16
39 | QQVKCIITEEKVCMVCKKKISNSA | 2.7
40 | QQVKCIITEEKVCMVCKKKIVNSA | 3.1
41 | QQVKCIITEEKVCMVCKKKIGNYA | 2.41
42 | QQVKCIITEEKVCMVCKKKIGNKA | 3.09
43 | QQVKCIITEEKVCMVCKKKIGNWA | 1.82
44 | QQVKCIITEEKVCMVCKKKIGNEA | 4.07
45 | QQVKCIITEEKVCMVCKKKIGNRA | 2.77
46 | QQVKCIITEEKVCMVCKKKIGNGA | 3.05
47 | QQVKCIITEEKVCMVCKKKIGNCA | 3.62
48 | QQVKCIITEEKVCMVCKKKIGNPA | 2.4
49 | QQVKCIITEEKVCMVCKKKIGNTA | 2.78
50 | QQVKCIITEEKVCMVCKKKIGNLA | 1.45
51 | QQVKCIITEEKVCMVCKKKIGNHA | 2.98
52 | QQVKCIITEEKVCMVCKKKIGNNA | 2.41
53 | QQVKCIITEEKVCMVCKKKIGNDA | 3.6
54 | QQVKCIITEEKVCMVCKKKIGNFA | 1.95

Row | Variant | protein stability index
55 | QQVKCIITEEKVCMVCKKKIGNAA | 3.52
56 | QQVKCIITEEKVCMVCKKKIGNIA | 1.73
57 | QQVKCIITEEKVCMVCKKKIGNQA | 2.5
58 | QQVKCIITEEKVCMVCKKKIGNVA | 2.19
59 | QQVKCIITEEKVCMVCKKKIGASA | 2.21
60 | QQVKCIITEEKVCMVCKKKIGDSA | 3.7
61 | QQVKCIITEEKVCMVCKKKIGWSA | 1.81
62 | QQVKCIITEEKVCMVCKKKIGRSA | 1.84
63 | QQVKCIITEEKVCMVCKKKIGCSA | 2.98
64 | QQVKCIITEEKVCMVCKKKIGISA | 1.75
65 | QQVKCIITEEKVCMVCKKKIGTSA | 2.29
66 | QQVKCIITEEKVCMVCKKKIGQSA | 3.38
67 | QQVKCIITEEKVCMVCKKKIGVSA | 2.11
68 | QQVKCIITEEKVCMVCKKKIGMSA | 2.75
69 | QQVKCIITEEKVCMVCKKKIGLSA | 2.57
70 | QQVKCIITEEKVCMVCKKKIGKSA | 2.79
71 | QQVKCIITEEKVCMVCKKKIGYSA | 1.99
72 | QQVKCIITEEKVCMVCKKKIGSSA | 2.62
73 | QQVKCIITEEKVCMVCKKKIGGSA | 1.42
74 | QQVKCIITEEKVCMVCKKKIGFSA | 2
75 | QQVKCIITEEKVCMVCKKKIGESA | 3.33

Row | Variant | protein stability index
76 | QQVKCIITEEKVCMVCKKKIGHSA | 2.25
77 | QQVKCIITEEKVCMVCKKKIGNSK | 3.03
78 | QQVKCIITEEKVCMVCKKKIGNSM | 2.54
79 | QQVKCIITEEKVCMVCKKKIGNSH | 2.23
80 | QQVKCIITEEKVCMVCKKKIGNSV | 2.24
81 | QQVKCIITEEKVCMVCKKKIGNSC | 3.03
82 | QQVKCIITEEKVCMVCKKKIGNSN | 2.84
83 | QQVKCIITEEKVCMVCKKKIGNSD | 3.35
84 | QQVKCIITEEKVCMVCKKKIGNSE | 2.48
85 | QQVKCIITEEKVCMVCKKKIGNSI | 2.49
86 | QQVKCIITEEKVCMVCKKKIGNSG | 2.29
87 | QQVKCIITEEKVCMVCKKKIGNSP | 3.03
88 | QQVKCIITEEKVCMVCKKKIGNSL | 1.74
89 | QQVKCIITEEKVCMVCKKKIGNSS | 2.37
90 | QQVKCIITEEKVCMVCKKKIGNSW | 2.07
91 | QQVKCIITEEKVCMVCKKKIGNSF | 2.1
92 | QQVKCIITEEKVCMVCKKKIGNSQ | 2.79
93 | QQVKCIITEEKVCMVCKKKIGNSY | 2.57
94 | QQVKCIITEEKVCMVCKKKIGNST | 2.93
